Results as given in PMC2928130.

Molecular target: GST-RPGR^1–15 H98Q (UniProt Q92834)
Assay: pull-down

UniProt Q92834, sequence (Q92834 whole entry H98Q): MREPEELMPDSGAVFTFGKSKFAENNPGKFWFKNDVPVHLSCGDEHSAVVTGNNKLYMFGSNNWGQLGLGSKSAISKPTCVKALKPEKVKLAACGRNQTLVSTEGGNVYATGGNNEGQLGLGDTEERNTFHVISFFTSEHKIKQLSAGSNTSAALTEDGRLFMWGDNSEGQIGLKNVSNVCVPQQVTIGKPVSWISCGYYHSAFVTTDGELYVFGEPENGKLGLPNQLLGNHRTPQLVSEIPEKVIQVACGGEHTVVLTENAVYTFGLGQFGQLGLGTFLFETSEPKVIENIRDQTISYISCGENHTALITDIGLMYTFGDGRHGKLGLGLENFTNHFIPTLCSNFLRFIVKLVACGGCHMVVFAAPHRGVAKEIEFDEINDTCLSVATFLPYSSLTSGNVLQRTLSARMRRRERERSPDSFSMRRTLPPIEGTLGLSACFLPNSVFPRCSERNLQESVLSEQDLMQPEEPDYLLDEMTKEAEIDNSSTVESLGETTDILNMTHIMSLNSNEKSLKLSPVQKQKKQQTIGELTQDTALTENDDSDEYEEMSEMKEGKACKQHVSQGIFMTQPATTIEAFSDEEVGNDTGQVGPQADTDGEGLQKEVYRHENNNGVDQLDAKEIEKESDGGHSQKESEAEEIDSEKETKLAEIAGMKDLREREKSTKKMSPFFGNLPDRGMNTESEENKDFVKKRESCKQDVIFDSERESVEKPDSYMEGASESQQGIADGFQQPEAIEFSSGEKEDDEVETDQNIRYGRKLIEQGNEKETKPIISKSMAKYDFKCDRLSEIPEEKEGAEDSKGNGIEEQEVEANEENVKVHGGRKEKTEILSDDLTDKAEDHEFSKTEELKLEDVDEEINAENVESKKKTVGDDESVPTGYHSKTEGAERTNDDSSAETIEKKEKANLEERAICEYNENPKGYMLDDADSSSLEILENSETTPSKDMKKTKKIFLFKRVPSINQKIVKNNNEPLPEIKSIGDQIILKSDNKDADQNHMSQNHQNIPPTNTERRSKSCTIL

Substance: ^35S-labeled RAB8A-T22N (GDP-locked form), in vitro translated (from UniProt P61006 1-207) (natural protein)
- fold less association than WT-RPGR: 5 fold
